In a protein production outcome set (Wang et al. 2014):

Experiment: label from the status in PepcDB records

Sequence: MESVKTGKTNKVGKNTEMANTKANKETHFKQVSAITNIIRSVGGFFTKIAKRVRGLVKKHPKKSSAALVVLTHIACKKAKELDDKVQDKSKQAEKENQINWWKYSGLTIAASLLLAACSAGDTDKQIELEQEKKEAENARDRANKSGIELEQERQKTNKSGIELANSQIKAEQERQKTEQEKQKANKSAIELEQQKQKTINTQRDLIKEQKDFIKETEQNCQENHNQFFIKKLGIKGGIAIEVEAECKTPKPAKTNQTPIQPKHLPNSKQPHSQRGSKAQEFIAYLQKELEFLPYSQKAIAKQVNFYKPSSIAYLELDPRDFKVTEEWQKENLKIRSKAQAKMLEMRDLKPDPQAHLPTSQSLLFVQKIFADVNKEIEAVANTEKKAEKAGYGYSKRM
- protein production: failed

Sequence: MESVYLFSSGTLKRKANTICLETESGRKYIPVENVMDIKVFGEVDLNKRFLEFLSQKRIPIHFFNREGYYVGTFYPREYLNSGFLILKQAEHYINQEKRMLIAREIVSRSFQNMVDFLKKRKVRADSLTRYKKKAEEASNVSELMGIEGNAREEYYSMIDSLVSDERFRIEKRTRRPPKNFANTLISFGNSLLYTTVLSLIYQTHLDPRIGYLHETNFRRFSLNLDIAELFKPAVVDRLFLNLVNTRQINEKHFDEISEGLMLNDEGKSLFVKNYEQALRETVFHKKLNRYVSMRSLIKMELHKLEKHLIGEQVFGSEE
- protein production: not failed

Sequence: METAICGRLALAPSSLFNSKSGDKHLVSKGPCVNRSILMTLSTSAALGKGGGVLDKPIIEKTTPGRESEFDLRKSKKIAPPYRVILHNDNFNKREYVVQVLMKVIPGMTVDNAVNIMQEAHINGLAVVIVCAQADAEQHCMQLRGNGLLSSVEPDGGGC
- protein production: failed

Sequence: METLLIQQTEKSNKFWKIVVKEKDYVVFYGKIGTAGSVKAKEFETEEECMNEANKLVASKRKKGYIDPLPGEDYIKEKTITEEEFWELLHRAKTKGEDQEEQIEWLTSHLAKRTVHEIVAFDTHMHSLLKDSYTSRLWAAAYIIMGGCSDDTFDYFRGWLLYQGKETYEACIEDPERLIPVLENLSEYDVPEIEELSLYFGFTVYAEKTGDEDDTYFTLYHVLSNEEFDDVDFEFDWNEDDEEGLKKVFPRLWEMYGEEPIEWLEHHHHHH
- protein production: not failed

Sequence: METNFSIPLNETEEVLPEPAGHTVLWIFSLLVHGVTFVFGVLGNGLVIWVAGFRMTRTVNTICYLNLALADFSFSAILPFRMVSVAMREKWPFGSFLCKLVHVMIDINLFVSVYLITIIALDRCICVLHPAWAQNHRTMSLAKRVMTGLWIFTIVLTLPNFIFWTTISTTNGDTYCIFNFAFWGDTAVERLNVFITMAKVFLILHFIIGFSVPMSIITVCYGIIAAKIHRNHMIKSSRPLRVFAAVVASFFICWFPYELIGILMAVWLKEMLLNGKYKIILVLINPTSSLAFFNSCLNPILYVFMGRNFQERLIRSLPTSLERALTEVPDSAQTSNTDTTSASPPEETELQAM
- protein production: failed

Sequence: METNKYLELIKQELANMPDFVKEYNLGTSHSLTTTYQYLTEIRRFFDWLRQNNIASVSSNKEIEVTTLENLQRNDVMLYIHHLKHTKNQQGRLNSPTTINRSINALRSLYKFLTITSDNNHGEPYFDRNVMLKINSLNDTKTLNYRAHVLESHMYMGDLKYQFLDFIENEYIHKCNKQSLPAFKKNHERDMAIIALILGTGIRVSECVGVNMRNINLKDAMLDVTRKGGQKDSVPIAEWTIPYLKKYREIRADHYHAEKEDIAFFLTRWHGKTKRITTNAVEKMVNKYSAAFGKPLTPHKLRHTLASELYEVTKDQVLVAQQLGQKGTTATDLYTHVDQKKQKAALNKINRYKSSD
- protein production: failed

Sequence: METPAVSLLVAVYNTETYIRTCLESLRNQTMDNIEIIIVNDGSADASPDIAEEYAKMDNRFKVIHQENQGLGAVRNKGIEAARGEFIAFIDSDDWIEPDYCEQMLRTAGDETDLVICNYAAEFEDTGKTMDSDIAQTYQDQPKEHYIKALFEGKVRGFSWNKLYRRSMIEAHRLSFPLRGELEHVEDQFFSFRAHFFARSVSYVKTPLYHYRIHLSSIVQRYQKKLFESGLALYETNAAFLQENNKLEEYRKELDTFIVLHSSICMLNEWKTSGSRRLFEKLRNVGVICADPVFQESLSKTGTAPFDAKRSCLLLMAKYRMIPFVAMASAVYQRVIEYKMRNRG
- protein production: failed

Sequence: METPNPLTLSELPHDLLRNIFNRLSFADFHRATWNSISKQTAPPKTKSPWLILFPDEGVHGCVLYNPDEDRIYKSVRDFSGTIFLANSGNWFLVMDSKSNLYIIDVFSENRIDLPPLESLLSDNFTFEQKGDKELKWQASNDQILVFRLPRAEELRGILWVDEKMKEFVAVWFLEDSCNFLAFYKKADDHYSHIQLEYVITDVFQSVSDIVLHGCFLYIGVGDYIQIIDLSKDQGFKDVTRNYLFNVHNGPWGFRSIFNLVVTTSGEVLMVLNNLYEKNIESEKSFRIFKKDPNPDPNKHDNLLVEVDSLGNEEVMLLDLGITMHGIEPNSIYFTRHDRVVHRLYIS
- protein production: not failed

Sequence: METPYTDHLSPEDFEHVYEPAEDSFLLLDALEKDLEYLDRLQPSLCVELGSGSGVIITALAKKLAGFSLCLATDINPKACNATRRTATRNGARLDSIRCSLADALRPRSVDVLLFNPPYVVTSDEELQTQQFDSHSESSTDRNLVFSWAGGQDGRRVTDILLKQLDDILSPRGVLYLLLLRENKPEEIIKYLEGLQFRAVKFMERRIPGEHLCILKVTRYLASS
- protein production: failed

Sequence: METRFVTPFHHLLVNNLVANITNFTIWFALTFYVYLETKSVFATGMIAGVYLVLTAACGIWFGSLVDHHRKKLAMAGSSLASLLLYALALAVLLLAPKGAIADVGRPWLWALIGLSMLGVIAGNIRTIALPTLVTLLIPEDRRDKANGLVGMVSGVGFLTTSVISGFLVAWGGMLAALTFALGFTVAALVHLLTVPVDEPRVEAEHGAPVAPRRIDLAGTIKVVAAVPGLFALILFATFNNFLGGIFMALLDAYGLSMVSVQAWGLLFGFLSVAFIISGLAISKTGLGKNPLRTLLLVNLISWAVCCVFPLKSSIVMLAMGCFVWMLLGPYAEAAEQTTLQKVVPFERQGRVFGFAQSVEQAASPLTAFLIGPLTQFIVIPFMTHGAGAAAIGDWFGRGPDRGMALVFTLAGVVGLIVTLLAFGSKAYRQLSAAYAQGEPAPAA
- protein production: failed

Sequence: METTDHSTPQCGSASAGGQKTVGKDDYLLIEAVNKGDADRVQQLLEQGADANVCEESGGWTPLHNAVQSGRVDIVNLLLRYGADPHRRKKNGATPFIVAGICGDVSLLQIFLSRGANINERDMYGFTAFMEAAEYGNVEALKFLFAEGADVNLRRETTEDRRRLKQGGATALMSAAENGHPEVVRILLDEMKAEADARDNMGRNALIRSLLNRDCENVEIHVEEITSVLIQYGADINVRGEGEKTPLISAVKRKHTGLVQMLLSQEGIKVNDRDSEGKTALQIAVELKLKEIVRLLLEKGADTKCGDLVWIAKRNYDHGLVKLLLSYEANHDTNPPAKDWLPHSARWGEALERLHSVSRPMTGKLKIFMNDDYKIASTSEGGIYLGIYDNREVAVKVFCENSSRGRKEVSCLRDCGDHSNLLTFYGSEEHKGSLYVCVSLCESTLEKFLNVPREEPMEKGEDKFALSVLLSIFKGVQKLHMHGYSHQNLQPPNILIDSEKAVRLADFDESIQWMRESQTVQRDLEDLGRLVLYVVNKGEIPFETLKGQNDEELLTIAPNEETKDLVHCLFSPGENVKNCLMDLLGHPFFWTWENRYRTLRDVGNESDIKVRNNKSKLLKLLQPQTHAPSRSFDRWTSKIDKRVMSDMNGFYKSRKGYRDTVGDLLKFIRNIGEHINEEKNRQMKEILGDPSRYFQETFPDLVIYIYKKLKETEFRKHFPQPPPSLSVPEAAGPGGVQS
- protein production: failed

Sequence: METVFALCAIMLLAFNLLGIVLAGWRLTRRDAENDLVRQKPPVSLVVPLRGVENFTPLTLSRAFGLDWPDYELLFCVADEFDPVIAEVRKAAAAFPSVSMQLLIGDDRVSANPKLNNCVKGWRAAKYEWVILADSNVLMPKSYIATMMSAWRPDSGLVCSPPLGSRPVGFWANVECAFLNGSQGRWQYAAEAIGIGFAQGKSMLWNKPFLEDRGGIRALAAEIAEDAASTKLVRSAGRKVHLVSAPFEQPLGQRHAGEIWSRQTRWARLRRVTFPQYFAPEILTGALPPLLFALAATAMMDVNLAATASVVLALMFGPELALAALNGWPVSLYTLPAMIARDLIMPVVWARSWIGSAVAWRGNVMTIGTAESTLAGPPAE
- protein production: failed

Sequence: MEVCSTVTTKKLSSLAKLILFTIQKVSDASRHKLLTTLDPHLLAKRGKILRKSLNEAVSTSHSRITCRPSDHQDVRSSFISPVPLQLEYEFSCSSTPPRRSYATTVSKGRRSNGSHNRPLINKRQRQAYIRYNTLPKVRDSIWDRHVAAAVFPDVASSTGTMESCHVDRAAEEFIQSFYRQLRLQKWMMAQEV
- protein production: failed

Sequence: MEVDKKDEREAESSEQVVNPWEVSAKDGGKIDYDKLIDKFGCQRLDESLIDRVQRLTSRQPHVFLRRSVFFAHRDFNEILDAYERGDKFYLYTGRGPSSEALHLGHLIPFMFTKYLQEAFKVPLVIQLTDDEKSIWKNLSVEESQRLARENAKDIIACGFDVTKTFIFSDFDYVGGAFYKNMVKVGKCVTLNKAMGIFGFSGEDPIAKLSFPPVQAVPSFPSSFPHLFPGKDNLRCLIPCAIDQDPYFRMTRDVAPRLGYSKPALIESTFFPALQGENGKMSASDPNSAIYVTDSAKDIKNKINRYAFSGGQDSIEKHRELGANLEVDIPVKYLSFFLEDDSELEHIKKEYGEGRMLTGEVKKRLTEVLTEIVERHRRARAAVTDEMVDAFMAVRPLPSMFE
- protein production: not failed

Sequence: MEVISSFYLFLEILGTVAFAISGTVVGINHKLDIFGILVMSVITAVGGGIFRDLLLGATPPTALKSPFFIVISIIASIVAMLVALIIKSRREALSIFKAARFYNNLLLVSDAIGLGIFTVLGIDAGIAHGYSQNIFFIVFLGVLTGVGGGMIRDVIANQVPMIFRENIYALPCIIGGILYVYLQSVISHNLALFISVIFIVLIRIISEQRKLNLPRIEY
- protein production: failed

Sequence: MEVKMNEIMEALEQSELIIIHRHLRPDPDAYGSQLGLKYYLQKKFPNKQIYAVGANEDSLKFIGLMDEIDDDMYKKATVVVCDTANAPRIDDQRYDTGTKLLKIDHHPATDQYGDINYVNTKASSTSEIIYEFILHFNDEHIIDEQVARVLYLGIVGDTGRFLFNNTTPRTMQIAGKLLTYPFDHNQELNKMSEKDPKLLPFQGYILQNFDLNDKGFCKVKITKDILEKFQIQPNEASLFVNTIADIRGLKIWMFGVDEGDQIRCRLRSKGHIIINDVANTFGGGGHPNASGVSVNSWEQFEQLAEALNDKL
- protein production: failed

Sequence: MEVSEGIEIIRGDPRRALIKLSGPLIVAMLLTSIYNLVDAVWVAGLGGEALAAIGFVTPIYMILVGLSNGLGAGAASSVSRCLGAGDEEGMNNSASHTIIITLAVSIILTVIIEILLRDILLSLGAAGALKPAMEYGSVVFAGTLFTLFPGAAYGILRSEGDARRPMYAMGLSAVLNMVLDPILIYTAGWGIAGAAWATVISQLLVSLLIIYWFLAGRTFTSIGWSHFRADRGVVWSILSVTIPASAEFLVMSMVTALLNWILTSVAGTSAVAVYSAGWRIVMLAIVPVISVATALVSVSGVAYGSRNFENLEVAHGYSIRLGLLIAGATAALTFVLAPWIAWIFSYSQASSHLAPRITGFLRVICLFYIFLPPGIMSGSIFQGAGRGMTSLMLSVIRQVLLVAVFAYLLAVTLGLGEVGVWWGVVAGDIGGSLVAYLWARLFIGRLRRYAA
- protein production: failed

Sequence: MEVYSMNFALGVILAFSAAFTWALTSVLSKVSMRRVSPLTLNFLRLVIASGFYLPLIIYLNLIPSKGIMWWVIVVFSGIIGFMIGDWLFLEGMKLLGVSRANMLTTLHPIITMVLAHYLLGRPLNAYLFLGAGLIILAVLLLLSEKSESGGINARGVLLVVVAELLWTIAILITDWLVSNEPPVLIAALRISSGILGGLPFLPKMWREIRKLRLGDMGLVFVISLLGTIVGQYLFIKSISLVSSTVATPVTESTPIMASLLAVVFLREKITSKLVASMMLSFIGILIIGVLG
- protein production: failed
